Experiments:
[1] = system: AncSZ; test: phosphorylation enrichment, bacterial display (enrichment ratio); higher = better substrate or ligand; peptides without Tyr show the background
[2] = molecular target: EPHB1 (UniProt P54762); test: as above
[3] = molecular target: EPHB2 (UniProt P29323); test: as above
[4] = molecular target: FGFR1 (UniProt P11362); test: as above
[5] = molecular target: FGFR3 (UniProt P22607); test: as above
[6] = system: Fer (mouse); test: as above
[7] = molecular target: Fes (UniProt P07332); test: as above
Sequence of Fes (P07332 whole entry, looked up): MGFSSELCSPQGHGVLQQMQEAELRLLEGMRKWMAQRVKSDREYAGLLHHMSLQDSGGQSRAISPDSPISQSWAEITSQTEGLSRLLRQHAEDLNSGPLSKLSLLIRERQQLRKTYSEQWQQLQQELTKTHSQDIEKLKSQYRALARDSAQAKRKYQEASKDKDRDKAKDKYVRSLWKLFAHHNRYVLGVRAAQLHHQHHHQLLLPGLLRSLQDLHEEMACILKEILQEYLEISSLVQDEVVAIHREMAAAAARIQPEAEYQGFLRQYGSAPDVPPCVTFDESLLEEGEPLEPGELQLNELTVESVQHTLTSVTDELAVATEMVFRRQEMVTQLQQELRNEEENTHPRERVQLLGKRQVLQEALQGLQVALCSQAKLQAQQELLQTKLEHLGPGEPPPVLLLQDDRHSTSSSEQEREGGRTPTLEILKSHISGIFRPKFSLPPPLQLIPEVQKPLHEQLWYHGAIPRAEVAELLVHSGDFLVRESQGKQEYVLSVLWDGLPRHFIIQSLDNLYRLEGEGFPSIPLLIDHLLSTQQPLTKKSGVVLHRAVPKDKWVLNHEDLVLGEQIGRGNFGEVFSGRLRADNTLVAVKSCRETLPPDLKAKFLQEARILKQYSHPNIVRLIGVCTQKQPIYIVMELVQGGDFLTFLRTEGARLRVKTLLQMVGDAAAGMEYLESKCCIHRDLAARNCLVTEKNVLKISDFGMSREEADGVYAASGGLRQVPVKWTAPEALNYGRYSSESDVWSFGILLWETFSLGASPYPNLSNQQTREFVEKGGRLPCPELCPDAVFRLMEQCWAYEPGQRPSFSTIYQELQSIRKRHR

[8] = molecular target: Fyn (UniProt P06241); test: as above
Sequence of Fyn (P06241 whole entry, looked up): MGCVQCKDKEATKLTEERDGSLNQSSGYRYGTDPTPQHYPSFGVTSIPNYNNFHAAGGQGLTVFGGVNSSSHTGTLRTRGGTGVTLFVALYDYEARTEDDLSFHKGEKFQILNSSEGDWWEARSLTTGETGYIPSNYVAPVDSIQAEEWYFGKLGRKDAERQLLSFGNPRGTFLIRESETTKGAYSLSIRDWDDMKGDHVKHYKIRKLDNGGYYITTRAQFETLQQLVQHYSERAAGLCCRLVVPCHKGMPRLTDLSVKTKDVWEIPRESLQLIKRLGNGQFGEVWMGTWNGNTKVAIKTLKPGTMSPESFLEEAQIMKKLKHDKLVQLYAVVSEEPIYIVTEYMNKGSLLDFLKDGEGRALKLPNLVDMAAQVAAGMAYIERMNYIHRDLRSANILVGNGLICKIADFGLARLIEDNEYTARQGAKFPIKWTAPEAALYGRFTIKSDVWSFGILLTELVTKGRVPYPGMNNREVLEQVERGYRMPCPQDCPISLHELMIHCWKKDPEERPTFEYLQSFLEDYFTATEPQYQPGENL

[9] = molecular target: Hck (UniProt P08631); test: as above
Sequence of Hck (P08631 whole entry, looked up): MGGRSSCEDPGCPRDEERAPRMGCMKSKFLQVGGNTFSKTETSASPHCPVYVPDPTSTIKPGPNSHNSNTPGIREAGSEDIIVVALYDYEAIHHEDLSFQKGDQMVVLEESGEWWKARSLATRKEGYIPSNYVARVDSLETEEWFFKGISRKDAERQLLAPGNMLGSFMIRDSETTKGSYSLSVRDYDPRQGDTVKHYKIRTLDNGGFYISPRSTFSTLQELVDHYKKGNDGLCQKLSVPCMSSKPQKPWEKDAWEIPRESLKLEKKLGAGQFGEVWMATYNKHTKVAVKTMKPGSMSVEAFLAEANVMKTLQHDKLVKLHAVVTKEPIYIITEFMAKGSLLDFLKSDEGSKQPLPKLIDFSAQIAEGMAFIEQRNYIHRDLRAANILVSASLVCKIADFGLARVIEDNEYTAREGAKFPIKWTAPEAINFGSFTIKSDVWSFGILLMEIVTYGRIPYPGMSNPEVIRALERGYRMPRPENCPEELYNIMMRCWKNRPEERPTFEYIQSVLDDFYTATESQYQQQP

[10] = molecular target: Jak2 (UniProt O60674); test: as above
[11] = molecular target: MERTK (UniProt Q12866); test: as above
[12] = system: c-Abl (mouse); test: as above
[13] = system: c-Src; test: as above
[14] = molecular target: Grb2 SH2 (UniProt P62993); test: SH2 binding enrichment of the phosphorylated peptide, bacterial display (enrichment ratio); higher = better substrate or ligand; peptides without Tyr show the background
Sequence of Grb2 SH2 (P62993 whole entry, looked up): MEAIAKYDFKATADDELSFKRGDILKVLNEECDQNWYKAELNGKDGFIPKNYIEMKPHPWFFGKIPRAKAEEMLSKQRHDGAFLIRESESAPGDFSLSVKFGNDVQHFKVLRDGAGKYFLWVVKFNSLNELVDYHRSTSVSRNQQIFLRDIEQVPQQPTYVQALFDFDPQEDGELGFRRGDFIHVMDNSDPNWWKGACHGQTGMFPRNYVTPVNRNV

[15] = molecular target: SHP2-C SH2; test: as above
[16] = molecular target: c-Src SH2; test: as above
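For SH2 binding enrichment of the phosphorylated peptide, bacterial display in this document: peptide library displayed on the E. coli surface as eCPX fusions, selected cells deep-sequenced, score is each peptide's frequency after selection divided by its frequency in the input.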
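For phosphorylation enrichment, bacterial display in this document: 11-residue human phosphosite peptides and single-mutation variants displayed on the E. coli surface, counted by deep sequencing, each peptide's frequency after selection divided by its frequency in the unselected input library; frequency after pTyr selection over input frequency; kinase dosed for 20-30% of maximal phosphorylation in three min.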

Sequence of EPHB1 (P54762 whole entry, looked up): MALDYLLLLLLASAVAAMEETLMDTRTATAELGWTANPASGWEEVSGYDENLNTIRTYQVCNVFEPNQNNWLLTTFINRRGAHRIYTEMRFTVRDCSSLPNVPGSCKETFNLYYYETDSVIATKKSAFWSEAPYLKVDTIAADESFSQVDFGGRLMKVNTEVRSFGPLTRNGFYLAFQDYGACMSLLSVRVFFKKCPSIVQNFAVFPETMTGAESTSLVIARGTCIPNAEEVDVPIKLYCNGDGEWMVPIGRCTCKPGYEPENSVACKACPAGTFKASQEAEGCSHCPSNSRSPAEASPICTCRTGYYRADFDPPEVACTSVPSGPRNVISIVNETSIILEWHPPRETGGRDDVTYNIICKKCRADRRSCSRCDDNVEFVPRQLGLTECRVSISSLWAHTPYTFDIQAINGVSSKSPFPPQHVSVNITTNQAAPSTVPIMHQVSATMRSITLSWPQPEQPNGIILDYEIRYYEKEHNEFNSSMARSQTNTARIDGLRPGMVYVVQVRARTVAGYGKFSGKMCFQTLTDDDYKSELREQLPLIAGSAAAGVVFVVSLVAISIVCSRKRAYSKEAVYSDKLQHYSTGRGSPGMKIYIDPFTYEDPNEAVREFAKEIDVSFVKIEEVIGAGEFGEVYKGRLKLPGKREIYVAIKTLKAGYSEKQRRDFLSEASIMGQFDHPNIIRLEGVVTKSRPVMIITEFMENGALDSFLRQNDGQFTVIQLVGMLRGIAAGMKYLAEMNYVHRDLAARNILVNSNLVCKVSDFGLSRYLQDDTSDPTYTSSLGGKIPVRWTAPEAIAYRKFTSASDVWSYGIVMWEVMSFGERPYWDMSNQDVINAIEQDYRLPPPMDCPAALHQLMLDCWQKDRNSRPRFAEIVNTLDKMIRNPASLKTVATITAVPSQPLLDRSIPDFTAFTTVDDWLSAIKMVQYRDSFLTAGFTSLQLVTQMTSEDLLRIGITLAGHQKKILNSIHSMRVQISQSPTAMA
Sequence of FGFR3 (P22607 whole entry, looked up): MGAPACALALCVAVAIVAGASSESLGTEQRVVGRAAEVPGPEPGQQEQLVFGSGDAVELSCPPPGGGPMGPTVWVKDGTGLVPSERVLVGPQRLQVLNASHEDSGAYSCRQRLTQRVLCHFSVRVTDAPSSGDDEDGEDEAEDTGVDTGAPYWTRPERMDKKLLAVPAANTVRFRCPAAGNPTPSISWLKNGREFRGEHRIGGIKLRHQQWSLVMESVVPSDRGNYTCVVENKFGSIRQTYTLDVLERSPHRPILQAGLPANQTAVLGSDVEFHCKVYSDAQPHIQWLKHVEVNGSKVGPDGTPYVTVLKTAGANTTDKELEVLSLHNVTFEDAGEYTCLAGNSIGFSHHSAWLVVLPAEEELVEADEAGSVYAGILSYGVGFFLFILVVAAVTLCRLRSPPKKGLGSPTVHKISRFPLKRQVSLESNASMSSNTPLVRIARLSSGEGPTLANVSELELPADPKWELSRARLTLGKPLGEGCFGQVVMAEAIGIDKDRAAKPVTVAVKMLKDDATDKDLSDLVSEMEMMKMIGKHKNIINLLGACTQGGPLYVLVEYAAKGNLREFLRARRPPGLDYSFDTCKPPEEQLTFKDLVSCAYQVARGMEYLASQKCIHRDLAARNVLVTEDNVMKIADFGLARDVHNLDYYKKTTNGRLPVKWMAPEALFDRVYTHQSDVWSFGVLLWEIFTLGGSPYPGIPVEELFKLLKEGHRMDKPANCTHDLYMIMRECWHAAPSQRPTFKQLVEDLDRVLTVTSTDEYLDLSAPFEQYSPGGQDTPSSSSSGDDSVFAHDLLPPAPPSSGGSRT
Sequence of FGFR1 (P11362 whole entry, looked up): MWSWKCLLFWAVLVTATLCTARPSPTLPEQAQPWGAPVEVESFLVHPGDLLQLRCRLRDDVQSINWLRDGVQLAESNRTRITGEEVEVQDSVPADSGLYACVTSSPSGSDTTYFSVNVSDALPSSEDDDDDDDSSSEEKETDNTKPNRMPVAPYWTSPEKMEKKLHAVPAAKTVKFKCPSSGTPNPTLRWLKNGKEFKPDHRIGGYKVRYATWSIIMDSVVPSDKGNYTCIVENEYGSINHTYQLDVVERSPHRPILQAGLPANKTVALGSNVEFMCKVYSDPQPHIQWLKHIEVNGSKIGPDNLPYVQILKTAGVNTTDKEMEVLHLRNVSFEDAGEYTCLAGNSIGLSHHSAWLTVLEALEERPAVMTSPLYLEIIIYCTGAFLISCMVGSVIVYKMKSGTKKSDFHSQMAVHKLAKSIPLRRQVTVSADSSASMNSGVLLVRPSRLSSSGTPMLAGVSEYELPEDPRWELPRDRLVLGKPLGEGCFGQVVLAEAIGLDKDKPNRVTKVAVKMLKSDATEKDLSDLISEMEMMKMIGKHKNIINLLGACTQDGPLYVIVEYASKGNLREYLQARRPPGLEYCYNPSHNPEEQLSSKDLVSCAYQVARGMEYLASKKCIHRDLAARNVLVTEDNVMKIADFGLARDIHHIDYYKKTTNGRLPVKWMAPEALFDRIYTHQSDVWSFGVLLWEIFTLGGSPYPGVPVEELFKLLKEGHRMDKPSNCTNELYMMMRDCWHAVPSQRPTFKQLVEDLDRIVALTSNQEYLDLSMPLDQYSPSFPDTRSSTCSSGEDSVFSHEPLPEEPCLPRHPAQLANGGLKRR

Sequence	phosphorylation enrichment [1]	phosphorylation enrichment [2]	phosphorylation enrichment [3]	phosphorylation enrichment [4]	phosphorylation enrichment [5]	phosphorylation enrichment [6]	phosphorylation enrichment [7]	phosphorylation enrichment [8]	phosphorylation enrichment [9]	phosphorylation enrichment [10]	phosphorylation enrichment [11]	phosphorylation enrichment [12]	phosphorylation enrichment [13]	SH2 binding enrichment [14]	SH2 binding enrichment [15]	SH2 binding enrichment [16]
FCIDHYLGKEM [G6PD_Y202_R198C_YF]	0.725	0.581	0.505	0.397	0.569	0.633	0.901	0.657	0.43	0.63	0.375	0.49	0.394	0.836	0.969	0.735
FDCGMYSHLQG [LGR4_Y848_YF]	1.37	1.08	0.969	0.89	1	1.64	1.31	0.985	3.54	1.18	4.74	1.07	3.25	0.727	1	1.79
FDCKWYIPLTD [BCR_Y756_YF]	1.45	0.998	0.818	0.661	1.06	0.66	1.49	0.41	0.581	1.44	0.625	0.826	0.466	0.772	0.745	0.482
FEGAIYRKDVG [GART_Y417]	0.645	0.332	0.312	0.347	0.539	0.662	0.707	0.405	0.514	0.467	0.288	0.457	0.393	0.664	0.582	0.451
FEPWVYSFSFE [PRKDC_Y647_YF]	1.59	0.775	0.744	0.653	1.03	1.34	1.65	6.63	3.01	1.25	1.66	0.842	6.33	0.736	0.738	0.551
FEPWVYSFSYE [PRKDC_Y647]	1.43	0.759	0.654	0.655	1.03	1.35	1.36	6.53	2.94	1.3	1.22	0.861	5.83	0.767	0.592	0.705
FETVKYINNER [ABCB7_Y345_F346I_YF]	0.903	0.46	0.403	0.525	0.64	0.424	0.954	0.452	0.472	0.712	0.418	0.617	0.431	1.23	0.713	0.441
FFRRHYPLTTL [TNS4_Y644]	0.995	0.408	0.497	0.426	0.467	0.455	0.917	0.426	0.399	0.876	0.491	0.587	0.516	1.15	0.566	0.422
FGFPGYQCKHF [TIMP3_Y177_S179C_YF]	0.695	0.337	0.514	0.517	0.535	0.473	0.789	0.445	0.506	0.831	0.542	0.716	0.548	1.37	0.703	0.83
FGLDHYQCDCT [PTGS1_Y54_R53H]	0.956	0.401	0.5	0.453	0.68	0.464	0.986	0.379	0.424	0.812	0.489	0.61	0.464	1.13	1.59	1.14
FGLTLYPNSRE [MEP1A_Y472_V469L]	0.911	0.55	0.56	0.682	0.698	0.413	1.09	0.471	0.397	0.68	0.385	0.629	0.394	1.12	0.893	0.661
FIATQYSLCPR [LBR_Y166_R169C_YF]	1.03	0.618	0.666	0.475	0.762	0.631	1.07	0.486	0.749	1.14	0.752	0.777	0.683	1.02	0.851	0.687
FIGRIYLYLTK [GARS1_Y414]	1.64	0.556	0.39	0.487	0.627	0.535	1.12	0.445	0.416	1.14	0.538	1.18	0.469	1.05	1.25	0.74
FIRRDYEACKA [BBS4_Y48_K46R_YF]	0.761	0.514	0.59	0.45	0.494	0.434	0.758	0.525	0.442	0.573	0.4	0.549	0.616	0.918	1.01	0.682
FISVGYVDDTQ [HLA-B_Y51]	0.808	0.507	0.593	0.556	0.743	0.471	1.05	0.47	0.444	0.801	0.432	0.752	0.405	1	0.747	0.599
FLAVGYHQPHI [IDS_Y225_K227Q]	0.559	0.448	0.415	0.391	0.514	0.35	0.593	0.418	0.405	0.447	0.298	0.57	0.297	0.879	1.25	1.55

From the supplement of paper PMC10065799, “High-throughput profiling of sequence recognition by tyrosine kinases and SH2 domains using bacterial peptide display” (eLife, 2023)
